According to patent US20050175724A1, “Composition for modulating a physiological reaction or inducing an immune response” (priority 2002, published 2005):

Columns and labels:
[1] = in vivo; cited from earlier work
[2] = delivered together with deoxycholate; cited from earlier work
[3] = tested on: proteolytic enzyme; assay: In vitro proteolytic enzyme inhibition (casein digestion by intestinal enzyme extract); assay type: biochemical, rainbow trout; details: increasing level of inhibitor inclusion; FIGS. 5-12
Experimental: • 1. Centrifuge Sorvall model • 2. Bench-top blender • 3. Dissecting material (scissors) • 4. Centrifuge bottle • 5. Disposable cuvettes for spectrophotometer • 6. Microcentrifuge tubes 1.5 ml • 7. Spectrophotometer • 8. Vortexer • 9. Microplates reader from Biorad • 10. 50 mM Tris-HCl pH=7.5 • 11. Commassie blue staining solution • 12 BSA (1 mg\ml) standard solution • 13 TCA 20% • 14. Rainbow trouts pancreatic and duodenal tissues • 15.0.5% casein in 50 mM Tris-HCl pH=9 • 16.50 mM Tris-HCl+CaCl2 10 mM pH=7.5 Enzyme Extract • 1. Rainbow trout were weighed and sacrificed. • 2. Dissection was performed to remove the proximal small intestine from the fish. • 3. After weighing, the tissues were homogenised in 50 mM Tris-HCl ph=7.5 (1:10 w\v). • 4. Centrifuge at 16000×g for 30 min at 4° C. • 5. Keep the supernatant. Aliquot and store them at −20 C for further use. • 6. Perform Commassie assay to measure the amount of protein present in the enzyme extract. Commassie Blue Stain Protocol • 1. Weigh 160 mg of BSA in 10 ml of […] Tris-HCl pH=7.5. • 2. […] Read at 655 nm with the microplate reader from Biorad. […] Centrifuge at 12000×g for 5 min and read at 280 nm. […] Centrifuge at 12000×g for 5 min and read at 280 nm. […] Centrifuge at 12000×g for 5 min and read at 280 nm. […] Centrifuge at 12000×g for 5 min and read at 280 nm. […] Centrifuge at 12000×g for 5 min and read at 280 nm. […]

[4] = tested on: salmonids; details: in vivo; cited from earlier work
[5] = tested on: rainbow trout; assay: Growth enhancement, intraperitoneal bST; assay type: in vivo, Oncorhynchus mykiss; details: IP 20 μg bST/g live body weight weekly for 6 weeks
Experimental: Intraperitoneal (IP) administration dose per fish weekly was 20 μg bST/g live body weight for 6 weeks.

horseradish peroxidase
time to transport to the circulation after oral administration [1]: ≤ 1 h

recombinant human GH: recombinant human growth hormone
enhancement of oral absorption [2]: ≤ 1000 fold

B1: lyophylized ovalbumin: individual protease inhibitor component of the Oralject cocktail (protein, UniProt P01012 2-386, looked up)
Ovalbumin: GSIGAASMEFCFDVFKELKVHHANENIFYCPIAIMSALAMVYLGAKDSTRTQINKVVRFDKLPGFGDSIEAQCGTSVNVHSSLRDILNQITKPNDVYSFSLASRLYAEERYPILPEYLQCVKELYRGGLEPINFQTAADQARELINSWVESQTNGIIRNVLQPSSVDSQTAMVLVNAIVFKGLWEKAFKDEDTQAMPFRVTEQESKPVQMMYQIGLFRVASMASEKMKILELPFASGTMSMLVLLPDEVSGLEQLESIINFEKLTEWTSSNVMEERKIKVYLPRMKMEEKYNLTSVLMAMGITDVFSSSANLSGISSAESLKISQAVHAAHAEINEAGREVVGSAEAGVDAASVSEEFRADHPFLFCIKHIATNAVLFFGRCVSP
in vitro proteolytic enzyme inhibition [3]: affect to differing degrees

B2: spray-dried ovalbumin: individual protease inhibitor component of the Oralject cocktail (protein, UniProt P01012 2-386, looked up)
Ovalbumin: GSIGAASMEFCFDVFKELKVHHANENIFYCPIAIMSALAMVYLGAKDSTRTQINKVVRFDKLPGFGDSIEAQCGTSVNVHSSLRDILNQITKPNDVYSFSLASRLYAEERYPILPEYLQCVKELYRGGLEPINFQTAADQARELINSWVESQTNGIIRNVLQPSSVDSQTAMVLVNAIVFKGLWEKAFKDEDTQAMPFRVTEQESKPVQMMYQIGLFRVASMASEKMKILELPFASGTMSMLVLLPDEVSGLEQLESIINFEKLTEWTSSNVMEERKIKVYLPRMKMEEKYNLTSVLMAMGITDVFSSSANLSGISSAESLKISQAVHAAHAEINEAGREVVGSAEAGVDAASVSEEFRADHPFLFCIKHIATNAVLFFGRCVSP
in vitro proteolytic enzyme inhibition [3]: affect to differing degrees

B3: bovine GH: bovine growth hormone (protein, UniProt P01246 27-217, looked up)
Somatotropin: AFPAMSLSGLFANAVLRAQHLHQLAADTFKEFERTYIPEGQRYSIQNTQVAFCFSETIPAPTGKNEAQQKSDLELLRISLLLIQSWLGPLQFLSRVFTNSLVFGTSDRVYEKLKDLEEGILALMRELEDGTPRAGQILKQTYDKFDTNMRSDDALLKNYGLLSCFRKDLHKTETYLRVMKCRRFGEASCAF
increase in growth rate [4]: two to three-fold

B4: recombinant bST: recombinant bovine somatotropin (Monsanto Co.) (protein, UniProt P01246 27-217, looked up)
Somatotropin: AFPAMSLSGLFANAVLRAQHLHQLAADTFKEFERTYIPEGQRYSIQNTQVAFCFSETIPAPTGKNEAQQKSDLELLRISLLLIQSWLGPLQFLSRVFTNSLVFGTSDRVYEKLKDLEEGILALMRELEDGTPRAGQILKQTYDKFDTNMRSDDALLKNYGLLSCFRKDLHKTETYLRVMKCRRFGEASCAF
body weight gain [5]: significantly induces increased body weight gain
